The record followed here is paper PMC4270772 (PLoS Pathogens, 2014).

For this test, the target named is T1, recombinant trimeric gp140 from HIV-1 92UG037 (clade A) (HIV-1 92UG037 (clade A), UniProt Q5VFI3, strain).
T1 construct: source: provided by S. Jeffs (Imperial College London)
Briefly: ELISA. As to conditions: both partners purified.

B1: 3E3 with the three germ line CDR2 residues re-inserted (VHH)
VHH: EVQLVESGGGLVQPGGSLRLSCAASQFTLESYAIGWFRQAPGKDSEGVACISSSDGSTYYADSVKGRFTISRDNAKNTVYLQMESLKPEDTAVYHCATSGAGSYCTLRAFGSWGQGTQVTVSS
In the case of B1, the binding result was “no binding”.
